B1: REGN7257: fully human IL-2Rγ antibody comprising the HCVR of SEQ ID NO: 1 and the LCVR of SEQ ID NO:5 (antibody, V domains shown)
VH: EVQLVESGGGLVQPGGSLRLSCAASGFIFSSYEMHWVRQAPGKGLEWISYISSSGTTIYYADSVKGRFTISRDNAKNSLYLHMNSLRAEDTAVYYCTRARITGTFDVFDIWGQGTMVTVSS
VL: DIQMTQSPSSLSASVGDRVTITCRASQSISSYLNWYQQKPGKAPKLLIFAASNLQSGVPSRFSGSRSGTDFTLTISSLQPEDFATYYCQQNYNIPYTFGQGTKLEIK

Key:
[1] = test system: BALB/cJ tail skin graft on VG mice humanized for IL2RG; assay: In vivo skin graft rejection model, REGN7257 with MMF (Example 4); set-up: species or system mouse; conditions: REGN7257 25 mg/kg s.c. 2 times per week from 2 days prior to transplant; MMF 100 mg/kg i.p. daily from day of transplant; until rejection; FIG. 9
Excerpt: (§1) BALB/cJ mice obtained from The Jackson Laboratory (Bar Harbor, ME) were used as skin graft donors, and MHC mismatched Velocigene® (VG) background mice (C57BL/6NTac (75%)/129S6SvEvTac (25%)) from the Regeneron Velocigene® breeding colony that were genetically modified to replace the endogenous IL2RG ectodomain with the corresponding human sequences were used as recipients. The skin graft was obtained from the tail of the donor mice. The skin was the peeled off using forceps and punched with a 10 mm diameter biopsy punch.
REGN7257 was administered subcutaneously at doses of 25 mg/kg at a frequency of 2 times per week starting 2 days prior to transplant, and continuing until rejection. MMF was administered intraperitoneally daily at a dose 100 mg/kg starting on the day of transplant, and continuing until rejection. Recipients with the surgical site shaved were anesthetized by isoflurane via a nose cone and administered an analgesic (buprenorphine-sustained release) (ZooPharm). The shaved dorsal area was swabbed with applications of povidone-iodine and alcohol. The graft bed was created midway laterally between the dorsal and ventral sides of the mouse by pinching skin with forceps followed by skin excision utilizing a sterile 10 mm diameter biopsy skin punch. […]

[2] = test system: BALB/cJ tail skin graft on VG mice humanized for IL2RG; assay: In vivo skin graft rejection model, REGN7257 monotherapy (Example 1); set-up: species or system mouse; conditions: 25 mg/kg s.c. 2 times per week starting 3 weeks prior to transplant until rejection
Excerpt: as §1
As detailed in Table 2 below, VG mice (humanized for IL2RG), used as graft recipients, were administered no treatment (negative control), an isotype control (REGN1945), or REGN7257 subcutaneously at doses 25 mg/kg at a frequency of 2 times per week starting 3 weeks prior to transplant, and continuing until rejection (FIG. 1). […]
These grafts will display scabbing and contraction several […] from bandage removal. […] The complete rejection timepoint is recorded as the first day where 100% of the graft tissue was necrotic. Rejection onset was recorded as the first day where there were signs of rejection (i.e., redness). Significance was determined by Log-rank (Mantel-Cox) test with Bonferroni correction (adjusted p value 0.00555, K=9).

[3] = test system: donor-specific antibodies (total IgG binding to CT26.WT cells); assay: Detection of donor specific antibodies by flow cytometry (Example 1); assay type: in vivo, mouse; conditions: blood sampled day 56 post-transplant; MFI at 1/512 serum dilution; FIG. 3
Experimental: Detection of donor specific antibodies by flow cytometry: Blood was sampled at the day 56 post-transplant timepoint to assess formation of donor-specific antibodies. CT26.WT (ATCC® CRL-2638™) cells were cultured in tissue culture flasks to 80% confluent. Cells were washed with 1×DPBS and dissociated with TrypLE Express reagent (Gibco) by incubating at room temperature for 5 minutes and washing flask with complete RPMI 1640 media. Cells were then centrifuged (500 g, 10 minutes), and resuspended at 5 million cells/ml with 1×DPBS with 1:50 dilution of 4 μg/mL of Fc block (Tonbo) for 15 minutes at room temperature. The suspension was plated at 250,000 cells/well (50 μL) in a 384 well V-bottom plate.
50 μL of serially diluted sample serum from transplanted mice and from non-engrafted wild type VG mouse (C57BL/6NTac (75%)/129S6SvEvTac (25%)) and wild type BALB/cJ mouse obtained from The Jackson Laboratory was added to its respective well and incubated at 37° C. for 45 minutes. Following 2 washes with MACS buffer (500 g, 4 minutes), the cells were resuspended in 50 μL of LIVE/DEAD™ Fixable Blue Dead Cell Stain Kit (Invitrogen) diluted 1:500 in 1×DPBS at 50 μL total volume per well and incubated at room temperature for 15 minutes. […] Acquired events were analyzed with FlowJo (BD). […]

[4] = test system: BALB/cJ tail skin graft on VG mice humanized for IL2RG; assay: In vivo skin graft rejection model, REGN7257 induction with abatacept maintenance (Example 2); set-up: species or system mouse; conditions: induction: 2 doses 25 mg/kg s.c. (2 days prior and day of transplant); maintenance: 25 mg/kg s.c. 2 times per week from day of transplant until rejection; FIG. 5
Experimental: (2) “Scabbing” and contraction of the graft at later times was used as indicators of graft rejection. The complete rejection timepoint is recorded as the first day where 100% of the graft tissue was necrotic. Significance was determined by Log-rank (Mantel-Cox) test with Bonferroni correction (α=0.005, k=10).

Molecule	Median Survival Time [MST] of skin graft [1]	overall skin graft survival (time to complete rejection) ([2]; FIG. 2B)	onset of skin graft rejection ([2]; vs no mAb and isotype control, FIG. 2A)	generation of donor-specific antibodies [3]	skin graft median survival time [MST] (time to complete skin graft rejection) [4] [days]
COc1c(C)c2c(c(O)c1C/C=C(\C)CCC(=O)OCCN1CCOCC1)C(=O)OC2 [MMF, mycophenolate mofetil, reference compound]	10	–	–	–	–
B1	12	improved	delayed	prevented	11
